Measurements from IntAct's records for PubMed 17572682.

B1: Protein CBFA2T1 (Homo sapiens), Q06455 (parent)
chain: MISVKRNTWRALSLVIGDCRKKGNFEYCQDRTEKHSTMPDSPVDVKTQSRLTPPTMPPPPTTQGAPRTSSFTPTTLTNGTSHSPTALNGAPSPPNGFSNGPSSSSSSSLANQQLPPACGARQLSKLKRFLTTLQQFGNDISPEIGERVRTLVLGLVNSTLTIEEFHSKLQEATNFPLRPFVIPFLKANLPLLQRELLHCARLAKQNPAQYLAQHEQLLLDASTTSPVDSSELLLDVNENGKRRTPDRTKENGFDREPLHSEHPSKRPCTISPGQRYSPNNGLSYQPNGLPHPTPPPPQHYRLDDMAIAHHYRDSYRHPSHRDLRDRNRPMGLHGTRQEEMIDHRLTDREWAEEWKHLDHLLNCIMDMVEKTRRSLTVLRRCQEADREELNYWIRRYSDAEDLKKGGGSSSSHSRQQSPVNPDPVALDAHREFLHRPASGYVPEEIWKKAEEAVNEVKRQAMTELQKAVSEAERKAHDMITTERAKMERTVAEAKRQAAEDALAVINQQEDSSESCWNCGRKASETCSGCNTARYCGSFCQHKDWEKHHHICGQTLQAQQQGDTPAVSSSVTPNSGAGSPMDTPPAATPRSTTPGTPSTIETTPR

Variants of: B1
Conditions: with ncor1_human NCOR1, O75376
Chain of ncor1_human NCOR1, O75376 (O75376 whole entry): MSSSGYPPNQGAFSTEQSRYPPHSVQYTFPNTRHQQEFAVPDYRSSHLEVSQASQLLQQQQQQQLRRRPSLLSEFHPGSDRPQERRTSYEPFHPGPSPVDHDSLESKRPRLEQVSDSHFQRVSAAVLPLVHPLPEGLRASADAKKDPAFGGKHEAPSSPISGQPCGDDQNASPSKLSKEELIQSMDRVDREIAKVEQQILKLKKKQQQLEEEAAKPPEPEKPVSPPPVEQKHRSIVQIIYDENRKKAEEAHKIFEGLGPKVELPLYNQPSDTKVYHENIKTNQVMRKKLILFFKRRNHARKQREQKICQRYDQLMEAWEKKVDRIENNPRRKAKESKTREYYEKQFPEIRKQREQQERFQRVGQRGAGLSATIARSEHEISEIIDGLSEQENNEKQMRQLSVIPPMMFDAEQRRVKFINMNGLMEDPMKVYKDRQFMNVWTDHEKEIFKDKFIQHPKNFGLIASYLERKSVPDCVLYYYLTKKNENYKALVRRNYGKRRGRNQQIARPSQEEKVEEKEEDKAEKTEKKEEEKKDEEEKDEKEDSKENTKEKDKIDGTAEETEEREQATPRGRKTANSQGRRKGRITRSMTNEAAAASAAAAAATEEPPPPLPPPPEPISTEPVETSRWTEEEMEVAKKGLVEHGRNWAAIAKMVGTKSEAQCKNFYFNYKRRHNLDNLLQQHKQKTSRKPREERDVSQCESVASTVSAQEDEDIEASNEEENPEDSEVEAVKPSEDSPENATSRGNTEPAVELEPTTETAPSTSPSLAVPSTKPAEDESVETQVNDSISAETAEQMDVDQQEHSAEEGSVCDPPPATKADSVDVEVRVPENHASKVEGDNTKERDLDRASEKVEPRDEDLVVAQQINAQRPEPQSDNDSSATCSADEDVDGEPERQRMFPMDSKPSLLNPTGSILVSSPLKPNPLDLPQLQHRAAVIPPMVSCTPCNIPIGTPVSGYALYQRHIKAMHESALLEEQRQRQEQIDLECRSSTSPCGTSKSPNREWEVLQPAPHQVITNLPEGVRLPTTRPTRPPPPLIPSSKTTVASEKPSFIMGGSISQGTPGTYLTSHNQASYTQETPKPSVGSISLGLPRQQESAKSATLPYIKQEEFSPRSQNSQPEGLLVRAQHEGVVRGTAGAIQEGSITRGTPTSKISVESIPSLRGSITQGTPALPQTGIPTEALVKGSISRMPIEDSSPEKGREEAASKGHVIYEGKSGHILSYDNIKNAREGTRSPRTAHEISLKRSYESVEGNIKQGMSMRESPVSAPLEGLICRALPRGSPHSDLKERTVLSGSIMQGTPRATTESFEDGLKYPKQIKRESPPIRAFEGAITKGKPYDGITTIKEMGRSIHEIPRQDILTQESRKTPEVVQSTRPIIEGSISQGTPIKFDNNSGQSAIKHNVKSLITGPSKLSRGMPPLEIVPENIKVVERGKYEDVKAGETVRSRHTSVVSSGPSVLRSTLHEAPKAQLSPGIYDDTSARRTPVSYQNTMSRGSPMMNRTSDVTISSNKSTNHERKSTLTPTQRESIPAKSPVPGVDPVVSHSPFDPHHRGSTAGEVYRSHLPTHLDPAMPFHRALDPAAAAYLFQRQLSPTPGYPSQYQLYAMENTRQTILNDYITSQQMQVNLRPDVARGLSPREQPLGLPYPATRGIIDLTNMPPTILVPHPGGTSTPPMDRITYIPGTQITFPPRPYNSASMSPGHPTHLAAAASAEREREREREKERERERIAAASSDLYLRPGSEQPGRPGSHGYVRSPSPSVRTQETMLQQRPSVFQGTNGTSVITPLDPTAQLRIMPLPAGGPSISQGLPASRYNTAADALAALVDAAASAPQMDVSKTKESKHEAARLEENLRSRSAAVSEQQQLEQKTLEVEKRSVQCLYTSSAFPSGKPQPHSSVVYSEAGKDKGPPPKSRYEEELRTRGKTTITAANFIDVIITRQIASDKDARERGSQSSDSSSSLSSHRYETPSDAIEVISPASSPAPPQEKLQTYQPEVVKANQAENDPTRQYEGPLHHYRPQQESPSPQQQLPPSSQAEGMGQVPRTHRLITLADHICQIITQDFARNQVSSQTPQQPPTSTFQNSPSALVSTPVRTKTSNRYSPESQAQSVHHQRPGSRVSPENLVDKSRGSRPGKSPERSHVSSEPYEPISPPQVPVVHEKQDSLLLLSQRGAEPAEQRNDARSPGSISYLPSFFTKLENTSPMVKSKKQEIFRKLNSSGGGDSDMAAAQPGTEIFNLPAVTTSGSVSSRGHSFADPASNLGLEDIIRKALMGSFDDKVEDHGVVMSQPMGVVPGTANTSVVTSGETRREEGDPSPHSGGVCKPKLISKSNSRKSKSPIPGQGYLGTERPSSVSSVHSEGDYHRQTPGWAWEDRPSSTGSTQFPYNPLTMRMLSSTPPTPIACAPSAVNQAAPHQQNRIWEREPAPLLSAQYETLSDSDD

| Variant | effect of a mutation on the interaction |
| --- | --- |
| F129K | decreasing interaction |
| F136A | decreasing interaction |

Results, then the variant that gave them:

| effect of a mutation on the interaction | Variant |
| --- | --- |
| decreasing interaction | T173Q |
| decreasing interaction | Q170A |
| decreasing interaction | F175A |
| decreasing interaction | L177A |
